Measurements from IntAct's records for PubMed 29892012.

B1: Coiled-coil domain-containing protein 120 (Homo sapiens), Q96HB5-4 (parent)
chain: MRREPRYQGQVGPDIHTDSERTLSSHQPRPLDSTKMEVKGQLISSPTFNAPAALFGEAAPQVKSERLRGLLDRQRTLQEALSLKLQELRKVCLQEAELTGQLPPECPLEPGERPQLVRRRPPTARAYPPPHPNQAHHSLCPAEELALEALEREVSVQQQIAAAARRLALAPDLSTEQRRRRRQVQADALRRLHELEEQLRDVRARLGLPVLPLPQPLPLSTGSVITTQGVCLGMRLAQLSQEDVVLHSESSSLSESGASHDNEEPHGCFSLAERPSPPKAWDQLRAVSGGSPERRTPWKPPPSDLYGDLKSRRNSVASPTSPTRSLPRSASSFEGRSVPATPVLTRGAGPQLCKPEGLHSRQWSGSQDSQMGFPRADPASDRASLFVARTRRSNSSEALLVDRAAGGGAGSPPAPLAPSASGPPVCKSSEVLYERPQPTPAFSSRTAGPPDPPRAARPSSAAPASRGAPRLPPVCGDFLLDYSLDRGLPRSGGGTGWGELPPAAEVPGPLSRRDGLLTMLPGPPPVYAADSNSPLLRTKDPHTRATRTKPCGLPPEAAEGPEVHPNPLLWMPPPTRIPSAGERSGHKNLALEGLRDWYIRNSGLAAGPQRRPVLPSVGPPHPPFLHARCYEVGQALYGAPSQAPLPHSRSFTAPPVSGRYYADFLYPPELSARLSDLTLEGEQSSSSDTQTPGTLV
partner: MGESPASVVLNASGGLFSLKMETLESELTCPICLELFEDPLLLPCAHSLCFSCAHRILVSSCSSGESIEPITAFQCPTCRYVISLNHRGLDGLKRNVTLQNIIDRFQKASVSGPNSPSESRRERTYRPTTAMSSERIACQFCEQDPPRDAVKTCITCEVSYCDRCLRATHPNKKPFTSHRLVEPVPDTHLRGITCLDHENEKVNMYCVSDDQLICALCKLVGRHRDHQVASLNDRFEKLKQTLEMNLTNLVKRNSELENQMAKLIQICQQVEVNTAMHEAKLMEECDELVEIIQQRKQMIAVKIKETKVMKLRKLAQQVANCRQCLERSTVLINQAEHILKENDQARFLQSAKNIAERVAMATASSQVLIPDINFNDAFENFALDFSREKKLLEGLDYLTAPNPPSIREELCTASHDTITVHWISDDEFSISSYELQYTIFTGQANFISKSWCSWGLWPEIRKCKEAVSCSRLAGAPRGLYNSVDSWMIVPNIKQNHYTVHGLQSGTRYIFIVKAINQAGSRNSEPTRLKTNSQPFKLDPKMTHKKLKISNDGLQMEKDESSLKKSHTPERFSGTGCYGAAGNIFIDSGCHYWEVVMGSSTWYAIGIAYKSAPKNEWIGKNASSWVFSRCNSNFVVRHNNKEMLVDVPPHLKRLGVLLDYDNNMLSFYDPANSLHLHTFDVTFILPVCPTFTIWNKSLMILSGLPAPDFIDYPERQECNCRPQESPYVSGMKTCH
B2: Protein VAC14 homolog (Homo sapiens), Q08AM6 (parent)
chain: MNPEKDFAPLTPNIVRALNDKLYEKRKVAALEIEKLVREFVAQNNTVQIKHVIQTLSQEFALSQHPHSRKGGLIGLAACSIALGKDSGLYLKELIEPVLTCFNDADSRLRYYACEALYNIVKVARGAVLPHFNVLFDGLSKLAADPDPNVKSGSELLDRLLKDIVTESNKFDLVSFIPLLRERIYSNNQYARQFIISWILVLESVPDINLLDYLPEILDGLFQILGDNGKEIRKMCEVVLGEFLKEIKKNPSSVKFAEMANILVIHCQTTDDLIQLTAMCWMREFIQLAGRVMLPYSSGILTAVLPCLAYDDRKKSIKEVANVCNQSLMKLVTPEDDELDELRPGQRQAEPTPDDALPKQEGTASGGPDGSCDSSFSSGISVFTAASTERAPVTLHLDGIVQVLNCHLSDTAIGMMTRIAVLKWLYHLYIKTPRKMFRHTDSLFPILLQTLSDESDEVILKDLEVLAEIASSPAGQTDDPGPLDGPDLQASHSELQVPTPGRAGLLNTSGTKGLECSPSTPTMNSYFYKFMINLLKRFSSERKLLEVRGPFIIRQLCLLLNAENIFHSMADILLREEDLKFASTMVHALNTILLTSTELFQLRNQLKDLKTLESQNLFCCLYRSWCHNPVTTVSLCFLTQNYRHAYDLIQKFGDLEVTVDFLAEVDKLVQLIECPIFTYLRLQLLDVKNNPYLIKALYGLLMLLPQSSAFQLLSHRLQCVPNPELLQTEDSLKAAPKSQKADSPSIDYAELLQHFEKVQNKHLEVRHQRSGRGDHLDRRVVL
partner: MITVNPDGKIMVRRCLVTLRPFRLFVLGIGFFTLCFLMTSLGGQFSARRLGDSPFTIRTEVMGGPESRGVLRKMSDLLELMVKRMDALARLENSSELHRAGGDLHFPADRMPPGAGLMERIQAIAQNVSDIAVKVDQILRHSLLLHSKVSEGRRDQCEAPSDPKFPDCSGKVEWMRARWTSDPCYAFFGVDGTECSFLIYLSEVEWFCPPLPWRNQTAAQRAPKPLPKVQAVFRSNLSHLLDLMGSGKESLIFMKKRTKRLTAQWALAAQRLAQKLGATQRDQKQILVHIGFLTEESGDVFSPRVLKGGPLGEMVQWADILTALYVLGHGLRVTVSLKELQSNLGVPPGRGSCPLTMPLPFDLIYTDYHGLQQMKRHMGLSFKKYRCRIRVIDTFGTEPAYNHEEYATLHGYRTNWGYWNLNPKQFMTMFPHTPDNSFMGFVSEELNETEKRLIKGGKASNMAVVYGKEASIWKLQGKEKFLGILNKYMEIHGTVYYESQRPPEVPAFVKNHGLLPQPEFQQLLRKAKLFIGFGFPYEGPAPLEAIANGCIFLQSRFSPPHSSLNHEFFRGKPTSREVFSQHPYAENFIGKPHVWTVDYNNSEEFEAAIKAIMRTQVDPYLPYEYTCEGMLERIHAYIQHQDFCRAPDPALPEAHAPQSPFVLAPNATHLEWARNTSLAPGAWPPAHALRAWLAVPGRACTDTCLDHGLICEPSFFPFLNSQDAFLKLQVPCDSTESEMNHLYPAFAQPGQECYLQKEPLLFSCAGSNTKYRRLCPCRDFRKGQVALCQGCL
B3: Protein VAC14 homolog (Homo sapiens), Q08AM6 (parent)
chain: B2 chain
partner: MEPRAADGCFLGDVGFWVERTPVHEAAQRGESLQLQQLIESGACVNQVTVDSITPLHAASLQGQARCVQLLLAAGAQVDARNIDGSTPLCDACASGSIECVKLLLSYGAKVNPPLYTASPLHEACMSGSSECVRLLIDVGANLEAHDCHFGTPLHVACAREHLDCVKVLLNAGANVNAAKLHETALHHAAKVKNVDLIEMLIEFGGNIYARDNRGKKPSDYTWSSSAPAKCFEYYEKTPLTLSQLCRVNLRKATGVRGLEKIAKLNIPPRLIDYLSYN
B4: Genetic suppressor element 1 (Homo sapiens), Q14687 (parent)
chain: MKGMSHEPKSPSLGMLSTATRTTATVNPLTPSPLNGALVPSGSPATSSALSAQAAPSSSFAAALRKLAKQAEEPRGSSLSSESSPVSSPATNHSSPASTPKRVPMGPIIVPPGGHSVPSTPPVVTIAPTKTVNGVWRSESRQDAGSRSSSGGRERLIVEPPLPQEKAGGPAIPSHLLSTPYPFGLSPSSVVQDSRFPPLNLQRPVHHVVPPSTVTEDYLRSFRPYHTTDDLRMSSLPPLGLDPATAAAYYHPSYLAPHPFPHPAFRMDDSYCLSALRSPFYPIPTPGSLPPLHPSAMHLHLSGVRYPPELSHSSLAALHSERMSGLSAERLQMDEELRREREREREREREREADREREKEREREREKEREQEKEREREKERERELERQREQRAREKELLAAKALEPSFLPVAELHGLRGHATEERGKPSEQLTPTRAEKLKDAGLQAPKPVQHPLHPVPTPHHTVPSLISNHGIFSLPSSSAATALLIQRTNEEEKWLARQRRLRQEKEDRQSQVSEFRQQVLEQHLDMGRPPVPAEAEHRPESTTRPGPNRHEPGGRDPPQHFGGPPPLISPKPQLHAAPTALWNPVSLMDNTLETRRAESHSLHSHPAAFEPSRQAAVPLVKVERVFCPEKAEEGPRKREPAPLDKYQPPPPPPREGGSLEHQPFLPGPGPFLAELEKSTQTILGQQRASLPQAATFGELSGPLKPGSPYRPPVPRAPDPAYIYDEFLQQRRRLVSKLDLEERRRREAQEKGYYYDLDDSYDESDEEEVRAHLRCVAEQPPLKLDTSSEKLEFLQLFGLTTQQQKEELVAQKRRKRRRMLRERSPSPPTIQSKRQTPSPRLALSTRYSPDEMNNSPNFEEKKKFLTIFNLTHISAEKRKDKERLVEMLRAMKQKALSAAVADSLTNSPRDSPAVSLSEPATQQASLDVEKPVGVAASLSDIPKAAEPGKLEQVRPQELSRVQELAPASGEKARLSEAPGGKKSLSMLHYIRGAAPKDIPVPLSHSTNGKSKPWEPFVAEEFAHQFHESVLQSTQKALQKHKGSVAVLSAEQNHKVDTSVHYNIPELQSSSRAPPPQHNGQQEPPTARKGPPTQELDRDSEEEEEEDDEDGEDEEEVPKRKWQGIEAVFEAYQEHIEEQNLERQVLQTQCRRLEARHYSLSLTAEQLSHSVAELRSQKQKMVSERERLQAELDHLRKCLALPAMHWPRGYLKGYPR
B5: Kinetochore protein NDC80 homolog (Homo sapiens), O14777 (parent)
chain: MKRSSVSSGGAGRLSMQELRSQDVNKQGLYTPQTKEKPTFGKLSINKPTSERKVSLFGKRTSGHGSRNSQLGIFSSSEKIKDPRPLNDKAFIQQCIRQLCEFLTENGYAHNVSMKSLQAPSVKDFLKIFTFLYGFLCPSYELPDTKFEEEVPRIFKDLGYPFALSKSSMYTVGAPHTWPHIVAALVWLIDCIKIHTAMKESSPLFDDGQPWGEETEDGIMHNKLFLDYTIKCYESFMSGADSFDEMNAELQSKLKDLFNVDAFKLESLEAKNRALNEQIARLEQEREKEPNRLESLRKLKASLQGDVQKYQAYMSNLESHSAILDQKLNGLNEEIARVELECETIKQENTRLQNIIDNQKYSVADIERINHERNELQQTINKLTKDLEAEQQKLWNEELKYARGKEAIETQLAEYHKLARKLKLIPKGAENSKGYDFEIKFNPEAGANCLVKYRAQVYVPLKELLNETEEEINKALNKKMGLEDTLEQLNAMITESKRSVRTLKEEVQKLDDLYQQKIKEAEEEDEKCASELESLEKHKHLLESTVNQGLSEAMNELDAVQREYQLVVQTTTEERRKVGNNLQRLLEMVATHVGSVEKHLEEQIAKVDREYEECMSEDLSENIKEIRDKYEKKATLIKSSEE

Variants of: B1
Conditions: with trim1_human MID2, Q9UJV3

| effect of a mutation on the interaction | Variant |
| --- | --- |
| with no effect | R346W |

Variants of: B2
Conditions: with mgt5b_human MGAT5B

| effect of a mutation on the interaction | Variant |
| --- | --- |
| with no effect | A127S |

Variants of: B3
Conditions: with asb13_human ASB13, Q8WXK3

| effect of a mutation on the interaction | Variant |
| --- | --- |
| with no effect | A127S |

Variants of: B4
Conditions: with rbpms_human RBPMS

| effect of a mutation on the interaction | Variant |
| --- | --- |
| with no effect | E368K |

Variants of: B4
Conditions: with rcor3_human RCOR3, Q9P2K3

| effect of a mutation on the interaction | Variant |
| --- | --- |
| with no effect | E368K |

Variants of: B4
Conditions: with rbpms_human RBPMS
Remark: another data set of the same source

| effect of a mutation on the interaction | Variant |
| --- | --- |
| with no effect | R503Q |

Variants of: B4
Conditions: with rcor3_human RCOR3, Q9P2K3
Remark: another data set of the same source

| effect of a mutation on the interaction | Variant |
| --- | --- |
| with no effect | R503Q |

Variants of: B5
Conditions: with tnip1_human TNIP1, Q15025
Chain of tnip1_human TNIP1, Q15025 (Q15025 whole entry): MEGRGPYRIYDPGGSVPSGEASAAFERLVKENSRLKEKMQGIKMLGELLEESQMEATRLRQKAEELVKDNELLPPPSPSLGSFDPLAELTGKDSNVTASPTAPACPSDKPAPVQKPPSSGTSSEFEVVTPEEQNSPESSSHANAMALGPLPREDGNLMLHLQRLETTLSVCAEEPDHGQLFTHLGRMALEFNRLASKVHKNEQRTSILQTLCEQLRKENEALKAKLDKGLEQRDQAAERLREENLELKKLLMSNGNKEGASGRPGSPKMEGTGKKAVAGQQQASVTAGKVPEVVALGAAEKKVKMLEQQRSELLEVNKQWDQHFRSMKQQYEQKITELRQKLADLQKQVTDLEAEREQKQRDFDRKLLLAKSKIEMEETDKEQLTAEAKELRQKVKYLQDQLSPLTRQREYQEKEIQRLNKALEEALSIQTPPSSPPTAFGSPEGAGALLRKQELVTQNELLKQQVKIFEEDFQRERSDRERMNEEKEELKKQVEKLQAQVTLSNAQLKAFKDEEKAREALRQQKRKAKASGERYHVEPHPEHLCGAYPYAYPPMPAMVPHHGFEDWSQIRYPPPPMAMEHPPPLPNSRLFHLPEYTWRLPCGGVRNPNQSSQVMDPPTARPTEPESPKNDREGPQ

| effect of a mutation on the interaction | Variant |
| --- | --- |
| with no effect | K288E |

Variants of: B5
Conditions: with amol2_human AMOTL2, Q9Y2J4
Chain of amol2_human AMOTL2, Q9Y2J4 (Q9Y2J4 whole entry): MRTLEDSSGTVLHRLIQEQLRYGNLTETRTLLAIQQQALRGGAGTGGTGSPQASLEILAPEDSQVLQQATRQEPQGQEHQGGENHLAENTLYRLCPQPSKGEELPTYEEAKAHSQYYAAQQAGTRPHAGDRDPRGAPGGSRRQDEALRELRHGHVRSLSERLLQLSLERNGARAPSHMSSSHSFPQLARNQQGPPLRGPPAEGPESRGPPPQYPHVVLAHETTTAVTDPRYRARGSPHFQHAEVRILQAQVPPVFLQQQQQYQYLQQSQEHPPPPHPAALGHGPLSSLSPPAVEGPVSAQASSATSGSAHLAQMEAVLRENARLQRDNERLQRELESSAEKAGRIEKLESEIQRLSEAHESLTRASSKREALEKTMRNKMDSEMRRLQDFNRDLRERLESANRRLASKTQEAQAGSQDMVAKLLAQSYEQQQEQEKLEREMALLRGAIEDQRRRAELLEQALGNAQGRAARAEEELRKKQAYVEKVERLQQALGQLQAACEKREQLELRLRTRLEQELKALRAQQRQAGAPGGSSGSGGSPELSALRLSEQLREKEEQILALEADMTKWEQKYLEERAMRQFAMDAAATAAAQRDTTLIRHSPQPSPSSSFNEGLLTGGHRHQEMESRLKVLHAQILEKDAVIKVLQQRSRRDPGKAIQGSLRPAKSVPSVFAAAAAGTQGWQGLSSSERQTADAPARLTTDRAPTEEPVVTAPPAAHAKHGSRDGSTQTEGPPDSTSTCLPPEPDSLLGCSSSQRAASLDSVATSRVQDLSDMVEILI

| effect of a mutation on the interaction | Variant |
| --- | --- |
| with no effect | K288E |

Variants of: B5
Conditions: with atf4_human ATF4, P18848
Chain of atf4_human ATF4, P18848 (P18848 whole entry): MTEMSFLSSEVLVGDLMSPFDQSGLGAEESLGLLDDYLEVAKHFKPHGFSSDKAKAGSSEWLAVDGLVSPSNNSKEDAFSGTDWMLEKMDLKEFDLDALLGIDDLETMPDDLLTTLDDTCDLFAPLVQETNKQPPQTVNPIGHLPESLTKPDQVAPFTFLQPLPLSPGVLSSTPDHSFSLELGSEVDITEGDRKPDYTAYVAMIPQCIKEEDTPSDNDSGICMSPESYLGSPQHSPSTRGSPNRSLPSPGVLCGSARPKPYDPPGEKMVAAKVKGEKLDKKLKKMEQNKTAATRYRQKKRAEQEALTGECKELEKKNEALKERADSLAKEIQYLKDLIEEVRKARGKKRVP

| effect of a mutation on the interaction | Variant |
| --- | --- |
| with no effect | K288E |

Variants of: B5
Conditions: with txlna_human TXLNA

| effect of a mutation on the interaction | Variant |
| --- | --- |
| with no effect | K288E |
